Assay [1] has as its target recombinant human IL-18Rα Fc chimera (R&D Systems, Cat. No. 816-LR) (human) (UniProt Q13478). The assay is described as follows: SPR cross-competition, second experiment; antibody 2 injected on hIL-18Rα hFc held by captured antibody 1 (competitor): Mab840.
Assay [2] addresses human IL-18Rα (IL-18R1) on human cells (KG-1 cells, PBMC, TH1-cultured T cells, whole blood) (human) (UniProt Q13478). Put plainly: cell-based or functional assay.
In assay [3] the target is recombinant human IL-18Rα Fc chimera (R&D Systems, Cat. No. 816-LR) (human) (UniProt Q13478). The assay is described as follows: SPR cross-competition, second experiment; antibody 2 injected on hIL-18Rα hFc held by captured antibody 1 (competitor): Mab2D11.
The target is the same in assay [4]. Put plainly: SPR cross-competition, second experiment; antibody 2 injected on hIL-18Rα hFc held by captured antibody 1 (competitor): Mab1G12.
For assay [5], the target named is T1, human IL-18Rα (IL-18R1) on human cells (KG-1 cells, PBMC, TH1-cultured T cells, whole blood) (human, UniProt Q13478 19-541).
T1 sequence: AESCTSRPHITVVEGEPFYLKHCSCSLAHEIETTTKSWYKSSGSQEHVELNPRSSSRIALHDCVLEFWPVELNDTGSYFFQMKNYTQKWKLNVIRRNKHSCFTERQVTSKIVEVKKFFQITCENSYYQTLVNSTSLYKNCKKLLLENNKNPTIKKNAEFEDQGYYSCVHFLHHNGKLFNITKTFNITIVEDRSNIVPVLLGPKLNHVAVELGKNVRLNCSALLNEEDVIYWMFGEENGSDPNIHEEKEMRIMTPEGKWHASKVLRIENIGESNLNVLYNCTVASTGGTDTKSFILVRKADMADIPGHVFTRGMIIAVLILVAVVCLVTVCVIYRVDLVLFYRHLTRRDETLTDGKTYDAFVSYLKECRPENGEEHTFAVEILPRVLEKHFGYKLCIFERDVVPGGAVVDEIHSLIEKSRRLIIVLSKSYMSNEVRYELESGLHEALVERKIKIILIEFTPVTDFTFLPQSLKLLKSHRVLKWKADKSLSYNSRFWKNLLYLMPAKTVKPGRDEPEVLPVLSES
Put plainly: cell-based or functional assay.

We go through six molecules from US20120156198A1 (Hoffmann-La Roche, published 2012).

Positions count from the first letter of the chain named.

“anti-human IL-18Rα murine MAb Clone 70625 (R&D Systems #MAB840) (antibody)”: the percentage of expected binding response for antibody 2 stood at 13% in assay [1], 97% in assay [3] and 97% in assay [4]. In assay [2], this molecule came in with an IL-18 induced IFNγ production by human KG-1 cells, IC50 [pM] of 798 pM.

B1: humanized Mab1G12-9.6 (antibody, V domains shown)
VH: QVQLVQSGAEVKKPGASVKVSCKASDYTFTSNWMHWVRQAPGQGLEWMGTIDPSDSYTYYNQKFQGRVTMTRDTSTSTVYMELSSLRSEDTAVYYCTTSGDYDADRYFDVWGQGTTVTVSS
VL: EIVLTQSPGTLSLSPGERATLSCRASKSVSTSGDSYMHWYQQKPGQAPRLLIYLASNLETGIPDRFSGSGSGTDFTLTISRLEPEDFAVYYCQQSRELPLSFGQGTKLEIK
As for B1, the “human TH1-assay (IFN-γ after IL-18/IL-12 restimulation), IC90 [pM]” value (“human TH1-assay” below) in assay [5] was 148 pM.

B2: humanized Mab1G12-12.6 (antibody, V domains shown)
VH: B1 VH with D26G, N61A, F64L, R72T, V79A, S84R, E89D
VL: B1 VL
With B2, the “human TH1-assay” value in assay [5] worked out at 399 pM.

B3: humanized Mab1G12-10.6 (antibody, V domains shown)
VH: B1 VH with V68A, R72V
VL: B1 VL
Take B3: the “human TH1-assay” value in assay [5] is 93.5 pM.

B4: humanized Mab1G12-11.6 (antibody, V domains shown)
VH: B1 VH with D26G, N61A, T76I, V79A, S85R, E89D
VL: B1 VL
As for B4, the “human TH1-assay” value in assay [5] is 77 pM.

B5: humanized Mab1G12-10.5 (antibody, V domains shown)
VH: B1 VH with V68A, R72V
VL: DIQMTQSPSSLSASVGDRVTITCQASKSVSTSGDSYMHWYQQKPGKAPKLLIYLASNLETGVPSRFSGSGSGTDFTFTISSLQPEDIATYYCQQSRELPLSFGQGTKLEIK
With B5, the “human TH1-assay” value in assay [5] was 283 pM.
